Experimental data taken from IntAct's records for PubMed 9294234.

B1: Receptor protein kinase CLAVATA1 (Arabidopsis thaliana (Mouse-ear cress)), Q9SYQ8 (parent)
chain: MAMRLLKTHLLFLHLYLFFSPCFAYTDMEVLLNLKSSMIGPKGHGLHDWIHSSSPDAHCSFSGVSCDDDARVISLNVSFTPLFGTISPEIGMLTHLVNLTLAANNFTGELPLEMKSLTSLKVLNISNNGNLTGTFPGEILKAMVDLEVLDTYNNNFNGKLPPEMSELKKLKYLSFGGNFFSGEIPESYGDIQSLEYLGLNGAGLSGKSPAFLSRLKNLREMYIGYYNSYTGGVPPEFGGLTKLEILDMASCTLTGEIPTSLSNLKHLHTLFLHINNLTGHIPPELSGLVSLKSLDLSINQLTGEIPQSFINLGNITLINLFRNNLYGQIPEAIGELPKLEVFEVWENNFTLQLPANLGRNGNLIKLDVSDNHLTGLIPKDLCRGEKLEMLILSNNFFFGPIPEELGKCKSLTKIRIVKNLLNGTVPAGLFNLPLVTIIELTDNFFSGELPVTMSGDVLDQIYLSNNWFSGEIPPAIGNFPNLQTLFLDRNRFRGNIPREIFELKHLSRINTSANNITGGIPDSISRCSTLISVDLSRNRINGEIPKGINNVKNLGTLNISGNQLTGSIPTGIGNMTSLTTLDLSFNDLSGRVPLGGQFLVFNETSFAGNTYLCLPHRVSCPTRPGQTSDHNHTALFSPSRIVITVIAAITGLILISVAIRQMNKKKNQKSLAWKLTAFQKLDFKSEDVLECLKEENIIGKGGAGIVYRGSMPNNVDVAIKRLVGRGTGRSDHGFTAEIQTLGRIRHRHIVRLLGYVANKDTNLLLYEYMPNGSLGELLHGSKGGHLQWETRHRVAVEAAKGLCYLHHDCSPLILHRDVKSNNILLDSDFEAHVADFGLAKFLVDGAASECMSSIAGSYGYIAPEYAYTLKVDEKSDVYSFGVVLLELIAGKKPVGEFGEGVDIVRWVRNTEEEITQPSDAAIVVAIVDPRLTGYPLTSVIHVFKIAMMCVEEEAAARPTMREVVHMLTNPPKSVANLIAF
partner: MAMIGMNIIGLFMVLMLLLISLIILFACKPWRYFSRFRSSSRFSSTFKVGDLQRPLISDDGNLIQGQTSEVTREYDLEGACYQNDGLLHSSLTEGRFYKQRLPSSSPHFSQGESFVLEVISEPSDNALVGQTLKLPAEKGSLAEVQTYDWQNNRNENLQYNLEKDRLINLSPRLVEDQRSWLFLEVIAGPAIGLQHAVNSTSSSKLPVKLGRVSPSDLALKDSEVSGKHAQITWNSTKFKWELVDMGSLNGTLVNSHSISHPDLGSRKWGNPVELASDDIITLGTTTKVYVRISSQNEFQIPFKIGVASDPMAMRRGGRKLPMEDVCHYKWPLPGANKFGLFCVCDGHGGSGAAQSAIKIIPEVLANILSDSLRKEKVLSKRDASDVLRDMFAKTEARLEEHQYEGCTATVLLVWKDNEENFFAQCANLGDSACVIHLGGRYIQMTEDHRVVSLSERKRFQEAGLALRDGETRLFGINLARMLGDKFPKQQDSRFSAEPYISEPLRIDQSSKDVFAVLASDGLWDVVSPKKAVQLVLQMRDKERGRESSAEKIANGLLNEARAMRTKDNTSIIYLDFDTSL

Variants of: B1
Details: with KAPP

Variant | effect of a mutation on the interaction
G856D | disrupting interaction
K720E | disrupting interaction

Variants of: B1
Details: with KAPP
Remark: another data set of the same source

Variant | effect of a mutation on the interaction
G856D | decreasing interaction
